The series is described as follows: soluble on expression in E. coli; label from the status in PepcDB or PDB records.
In the case of “PSPGGQMHAGISSFQQSNSSGTYGPQMSQYGPQGNYSRPPAYSGVPSASYSGPGPGMGISANNQMHGQGPSQPCGAVPLGRMPSAGMQNRPFPGNMSSMTPSSPGMSQQGGPGMGPPMPTVNRKAQEAAAAVMQAAANSAQSRQGSFPGMNQSGLMASSSPYSQPMNNSSSLMNTQAPPYSMAPAMVNSSAASVGLADMMSPGESKLPLPLKADGKEEGTPQPESKSKDSYSSQGISQPPTPGNLPVPSPMSPSSASISSFHGDESDSISSPGWPKTPSSPKSSSSTTTGEKITKVYELGNEPERKLWVDRYLTFMEERGSPVSSLPAVGKKPLDLFRLYVCVKEIGGLAQVNKNKKWRELATNLNVGTSSSAASSLKKQYIQYLFAFECKIERGEEPPPEVFSTGDTKKQPKLQPPSPANSGSLQGPQTPQSTGSNSMAEVPGDLKPPTPASTPHGQMTPMQGGRSSTISVHDPFSDVSDSSFPKRNSMTPNAPYQQGMSMPDVMGRMPYEPNKDPFGGMRKVPGSSEPFMTQGQMPNSSMQDMYNQSPSGAMSNLGMGQRQQFPYGASYDRRHEPYGQQYPGQGPPSGQPPYGGHQPGLYPQQPNYKRHMDGMYGPPAKRHEGDMYNMQYSSQQQEMYNQYGGSYSGPDRRPIQGQYPYPYSRERMQGPGQIQTHGIPLQMMGGPLQSSSSEGPQQNMWAARNDMPYPYQNRQGPGGPTQAPPYPGMNRTDDMMVPDQRINHESQWPSHVSQRQPYMSSSASMQPITRPPQPSYQTPPSLPNHISRAPSPASFQRSLENRMSPSKSPFLPSMKMQKVMPTVPTSQVTGPPPQPPPIRREITFPPGSVEASQPVLKQRRKITSKDIVTPEAWRVMMSLKSGLLAESTWALDTINILLYDDSTVATFNLSQLSGFLELLVEYFRKCLIDIFGILMEYEVGDPSQKALDHNAARKDDSQSLADDSGKEEEDAECIDDDEEDEEDEEEDSEKTESDEKSSIALTAPDAAADPKEKPKQASKFDKLPIKIVKKNNLFVVDRSDKLGRVQEFNSGLLHWQLGGGDTTEHIQTHFESKMEIPPRRRPPPPLSSAGRKKEQEGKGDSEEQQEKSIIATIDDVLSARPGALPEDANPGPQTESSKFPFGIQQAKSHRNIKLLEDEPRSRDETPLCTIAHWQDSLAKRCICVSNIVRSLSFVPGNDAEMSKHPGLVLILGKLILLHHEHPERKRAPQTYEKEEDEDKGVACSKDEWWWDCLEVLRDNTLVTLANISGQLDLSAYTESICLPILDGLLHWMVCPSAEAQDPFPTVGPNSVLSPQRLVLETLCKLSIQDNNVDLILATPPFSRQEKFYATLVRYVGDRKNPVCREMSMALLSNLAQGDALAARAIAVQKGSIGNLISFLEDGVTMAQYQQSQHNLMHMQPPPLEPPSVDMMCRAAKALLAMARVDENRSEFLLHEGRLLDISISAVLNSLVASVICDVLFQIGQL”, the “soluble on expression in E. coli” value is listed as “soluble”.
As to “PSSNGPLEGTRGKLKNKPRDRGTSPPQRAVEEFDDGEKVHLKIDPSVPNGRFHPRFDGQTGTVEGKQGDAYKVDIVDGGKEKTIIVTAAHLRRQE”, the “soluble on expression in E. coli” value was “soluble”.
In the case of “PTIFEERHLKYISQLGKGNFGSVELCRYDPLGDNTGALVAVKQLQHSGPDQQRDFQREIQILKALHSDFIVKYRGVSYGPGRPELRLVMEYLPSGCLRDFLQRHRARLDASRLLLYSSQICKGMEYLGSRRCVHRDLAARNILVESEAHVKIADFGLAKLLPLDKDYYVVREPGQSPIFWYAPESLSDNIFSRQSDVWSFGVVLYELFTYCDKSCSPSAEFLRMMGCERDVPALCRLLELLEEGQRLPAPPACPAEVHELMKLCWAPSPQDRPSFSALGPQLDMLWSGSR”, the “soluble on expression in E. coli” value was “soluble”.
To “PTILVVGDLMIDHYIWGECERISPEAPVQVIDVKRETKTLGGACNVMSNLIALEASVLSCGVVGEDLAGRELLGFLQELGMESKGIITQKGRPTTQKSRIIASNQQVVRVDWENKSPISEESEEAMIAYIRSKLSLCDAVILSDYGKGVLTPRVCQTIIQMAKTLQKRVLVDPKGRDYSKYRGASLLTPNKKEAKEATGIEINDEASLKKALECLKKECELEFSVITLSEDGIGIFDQALERIPTIAQEVYDVTGAGDTVIASLAYGLSLGYPLRECALFANAAAAVVVGKIGSATATHGEIAEYLHS” belongs “not soluble”; to “PTSSTTAALVMGDALAVALLEARGFTAEDFALSHPGGALGRKLLLRVNDIMHTGDEIPHVGLQATLRDALLEITRKNLGMTAICDDDMNIIGIFTDGDLRRVFDTGVDMRDASIADVMTRGGIRIRPGTLAVDALNLMQSRHITCVLVADGDHLLGVVHMHDLLRA”, “soluble”.
The same measure for “PVFILGHWRSGTTFVHNVFSCDSHFGYNTTYQTVFPHLMMWGQPFFKKNMSWLMPDKRPTDNMELAVDLPQEEEFALANMMPYTYYNFWFLPRYQQEYADKYLLFDTISEAELKVFEETFTKLIKISLWNTQGTQFLSKNPPHTGRVKELVKMFPNAKFIYLMRNPYTVFESTRSFFTNTIQPLKLQDITPAELENNILSIYAKLYHKYEADKQFIPEGNLMEVKFEDFEADAMGMTENIYHALDIPGFAEARGSIEKYVGGKKGYKKNKYKYDDRTVQLVQDHWDFALKQWDYSL”: “not soluble”; for “PWLENVQVQLSDLFSELKYNSVSGSGKIGIMASGVSALYVKEAVKGFEELFTLFRVGTVYPFPEKAALSFLKGIEKLIVVEELDPYLEEQALQLIGRAHLPADVYGKKNGFFPVSGEYNVDIIIDCINKVLAELGETSRLSHSAPAIPRSGLPPLPVRAPTLCAGCMHRTVFYAFKQASKQLKKDFQVETIFSGDIGCYTLGNAHPLNMVDTCLCMGAGMSIAGGLSRANPGVKQVAFIGDSTFFHSGIPAVINAVYNGSDVTLAVLDNRTTAMTGHQTHPGIGVTVLGSPSKAVDISDVIRSCGVELVRSVDIDSLENSLEGCIEAAKEAVEFKGPSAVVFKGKCVGITKPVIRFEIDTESCTGCGLCVKQLGCPALFLPAGEEKPVIQDSCSGCGLCAQVCPSGAIIETGVK”: “not soluble”.
For the sequence “PYKASKSRGLVVSNIYSRYDINELESGLMRVSQNKYSPDNYLFQEGQYLDKETLEKWLDRKSEKNPNGLNPESNGDGKDRKPIYLAHILEQDYLKQTDKDTVALGGISIALAMNSVDYYQKEQYGDTFEQEISDSDLLAQGKEMSGTVLNRIRQTKGLENVPVTIAIYKQGPRDAVAPGNFLTYATANGDSLSSWKDVEEKNYVLPSTESAKDHKTDNDNFLNFKKAIEDYYPNFTGVVGRARYEDGQLAELSIDIPLQFYGQAEIIGFTQYVTDLVGQHIPKTADLQVNISTSDGPAALITRKANEDAATA”, the “soluble on expression in E. coli” value was “not soluble”.
On to “QAGFNDLFTINNTPAKTATEIYLENFPEQRNPLKSTGVNIVFKAPEGHTLAEPENKAAMDSVVQAIQDNLEGLTNTQRFGNPVELNPKLQQGVIDLMTQRGVPEENARADAANLSLITPDETIGYTTFDIDVPMPADVSDAQRQAITDAMNLGREKGLTVEAGGAGFGDPIVIEETSE”, for which the “soluble on expression in E. coli” value is reported as “not soluble”.
The same measure for “QCTGGADCTSCTGACTGCGNCPNAVTCTNSQHCVKANTCTGSTDCNTAQTCTNSKDCFEANTCTDSTNCYKATACTNSSGCPGH”: “soluble”; for “QDKITVTSEKPVAAADVPADAVVVGIEKMKYLTPEVTIKAGETVYWVNGEVMPHNVAFKKGIVGEDAFRGEMMTKDQAYAITFNEAGSYDYFCTPHPFMRGKVIVE”: “soluble”.
To “QFMKPFISEKSSKSLEIPLGFNEYFPAPFPITVDLLDYSGRSWTVRMKKRGEKVFLTVGWENFVKDNNLEDGKYLQFIYDRDRTFYVIIYGHNMCS” belongs “not soluble”; to “QGDLLLAQYTRAYGYYNPAYAGMRKEIFITALHNRQWEGMPRSPKSFVVLADAPIRFFDREHGVGVRVVTETRGLFAINELMGQYAFKQKLFGGDLSVALQAGLVNTAFDGTKVELETENDPAIPLTKVSGKAFDIGAGIYYRRKE”, “not soluble”; to “QIVLTQSPAIMSASLGDRVTMTCTASSSVSSSYLHWYQQKPGSSPKLWIYSTSNLASGVPARFSGSGSGTSYSLTISSMEAEDAATYYCHQFHRSLTFGSGTKLE”, “soluble”.
To “QLHLSLPSDTQASYSSTQRKQAEIMAEGFGPGINSPFLVVADAHSVDENAEILEPLIRAQNPAPGERKQAAANAAYQYIIQKYSVTPDVKHVQIVGLSKDGLAAQLLLTPESSPEDDVTKQLIDALLIKQDEVNNATGIRSGITGLIPVQQDVTNR” belongs “not soluble”.
As for “QPTAQQQLTKPAKITCANCKKPLQKGQTAYQRKGSAHLFCSTTCLSSFS”, the “soluble on expression in E. coli” value was “soluble”.
Take “QQQHKVLKTVKVTEQLKHCSEILKEMLAKKHLPYAWPFYNPVDADALGLHNYYDVVKNPMDLGTIKGKMDNQEYKDAYEFAADVRLMFMNCYKYNPPDHEVVAMARTLQDVFELHFAKIPDEPIES”: the “soluble on expression in E. coli” value is listed as “soluble”.
Consider “QRNGFCRLPADEGICKALIPRFYFNTETGKCTMFSYGGCGGNENNFETIEECQKACGAPERVNDFESADFKTGCEPAADSGSCAGQLERWFYNVQSGECETFVYGGCGGNDNNYESEEECELVCKNM”, for which the “soluble on expression in E. coli” value is “soluble”.
The same measure for “QVQLLESGAELVKPGASVKLSCKASGYTFTSYWMHWVKQRPGRGLEWIGRIDPNSGGTKYNEKFKSKATLTVDKPSSTAYMQLSSLTSEDSAVYYCTRRDSDYWGAGTTVTVSSASTKGPSVFPLAPSSKSTSGGTAALGCLVKDYFPEPVTVSWNSGALTSGVHTFPAVLQSSGLYSLSSVVTVPSSSLGTQTYICNVNHKPSNTKVDKKVEPKSCDKT”: “soluble”; for “QVQLQQSGAELMKPGASVKISCKATGYTFSSYWIAWVKQRPGHGLEWIGEILPGSGSTNYNEKFKGKATFTADTSSNTAYMQLSSLTSEDSAVYYCARSPYYYGNWDYWGQGTTLTVSSAKTTPPSVYPLAPGSAAQTNSMVTLGCLVKGYFPEPVTVTWNSGSLSSGVHTFPAVLQSDLYTLSSSVTVPSSTWPSETVTCNVAHPASSTKVDKKIVPRDC”: “soluble”.
The same measure for “QVQSVEVMRDSYGVPHVFADSHYGLYYGYGYAVAQDRLFQMDMARRSFVGTTAAVLGPGEQDAYVKYDMQVRQNFTPASIQRQIAALSKDERDIFRGYADGYNAYLEQVRRRPELLPKEYVDFDFQPEPLTDFDVVMIWVGSMANRFSDTNLEVTALAMRQSLEKQHGPERGRALFDELLWINDTTAPTTVPAPAA”: “soluble”.
“RALDTEDIQKVFTKLPQSSAVTSDMRRTQELFVLMFLLRGLPFVDLAYLRKSDLHDNVITYRRRKTGRPLSVTLTPEAMAILKRYMNRDTSSPYLFPLLNSREGTKEAYHEYQLALRNFNRQLMLLGEMLGLGDKLSSYTARHTWATTAYYCEIHPGVISEAMGHSSITVTETYLKPFRNKKIDEANKKVVDFIKRSIPIAMC”: the “soluble on expression in E. coli” value is reported as “not soluble”.
The same measure for “RDHRKIGKQLDLYHMQEEAPGMVFWHNDGWTIFRELEVFVRSKLKEYQYQEVKGPFMMDRVLWEKTGHWDNYKDAMFTTSSENREYCIKPMNCPGHVQIFNQGLKSYRDLPLRMAEFGSCHRNEPSGSLHGLMRVRGFTQDDAHIFCTEEQIRDEVNGCIRLVYDMYSTFGFEKIVVKLSTRPEKRIGSDEMWDRAEADLAVALEENNIPFEYQLGEGAFYGPKIEFTLYDCLDRAWQCGTVQLDFSLPSRLSASYVGEDNERKVPVMIHRAILGSMERFIGILTEEFAGFFPTWLAPVQVVIMNITDSQSEYVNELTQKLSNAGIRVKADLRNEKIGFKIREHTLRRVPYMLVCGDKEVESGKVAVRTRRGKDLGSMDVNEVIEKLQQEIRSRSLKQLEE”: “soluble”.
Regarding “RDILEVLQDIHMETGETVAIATKNDIYLQYIQIIESVHALRFHVDENAIRPLTMSSNGWMLMSTMNDKAIDNTVRRANTITQKDGIRFEVDDMMARIRQVREQGYASAEHIPFVGGGTICVLLPMTIQGQPVTMGLGGALDRIKQNYDRYLELLLNGVQQLKKSDSFHQPIELAH”, the “soluble on expression in E. coli” value is “not soluble”.

Values taken from the DeepSol protein solubility set.
